Source: article PMC6277545, “Structural Basis for the Limited Response to Oxidative and Thiol-Conjugating Agents by Triosephosphate Isomerase From the Photosynthetic Bacteria Synechocystis” (Frontiers in Molecular Biosciences, 2018)

B1: Synechocystis sp. PCC 6803 triosephosphate isomerase (enzyme)
chain: GPHMRKIIIAGNWKMHKTQAEAQAFLQGFKPLIEDAAESREVVLCVPFTDLSGMSQQLHGGRVRLGAQNVHWEASGAYTGEISAAMLTEIGIHYVVIGHSERRQYFGETDETANLRVLAAQKAGLIPILCVGESKAQRDAGETEQVIVDQVKKGLVNVDQSNLVIAYEPIWAIGTGDTCAATEANRVIGLIREQLTNSQVTIQYGGSVNANNVDEIMAQPEIDGALVGGASLEPQSFARIVNFQP
notes: triosephosphate isomerase of Synechocystis sp; PCC 6803, GenBank BAK50928.1; Crystallised with the substrate analog 2-phosphoglycolate (2-PG); also called SyTPI; Synechocystis TPI; source: E. coli BL21 (DE3) Δtpi, purified (HisTrap, PreScission Protease, Superdex 75 gel filtration); not shown: His tag (from the HisTrap column and the modified pET19 vector), N-terminal, cleaved
B2: Arabidopsis thaliana cytosolic triosephosphate isomerase (enzyme, UniProt P48491 1-254, looked up)
chain: MARKFFVGGNWKCNGTAEEVKKIVNTLNEAQVPSQDVVEVVVSPPYVFLPLVKSTLRSDFFVAAQNCWVKKGGAFTGEVSAEMLVNLDIPWVILGHSERRAILNESSEFVGDKVAYALAQGLKVIACVGETLEEREAGSTMDVVAAQTKAIADRVTNWSNVVIAYEPVWAIGTGKVASPAQAQEVHDELRKWLAKNVSADVAATTRIIYGGSVNGGNCKELGGQADVDGFLVGGASLKPEFIDIIKAAEVKKSA
notes: cytosolic triosephosphate isomerase of Arabidopsis thaliana; also called AtcTPI; cytosolic TPI isoform of A. thaliana

Molecular target: the molecule itself
Experiment: SEC; Superdex 75 10/300 column, compared with MW standards (conalbumin, ovalbumin, carbonic anhydrase, Ribonuclease A); apparent molecular mass of SyTPI 54 kDa

| Protein | stoichiometry N |
| --- | --- |
| B1 | 2 |
| B2 | 2 |
